In the DeepSol protein solubility set:

Experiment: soluble on expression in E. coli; label from the status in PepcDB or PDB records

Row | Sequence | soluble on expression in E. coli
1 | SGDVLWDIPTPKIIEECEHLEDGIYGIFQSTFLGASQRGVGVAQGGVFHTMWHVTRGAFLVRNGKKLIPSWASVKEDLVAYGGSWKLEGRWDGEEEVQLIAAVPGKNVVNVQTKPSLFKVRNGGEIGAVALDYPSGTSGSPIVNRNGEVIGLYGNGILVGDNSFVSAISQTEVKEEGKEELQEIPTMLKKGMTTVLDFHPGAGKTRRFLPQILAECARRRLRTLVLAPTRVVLSEMKEAFHGLDVKFHTQAFSAHGSGREVIDAMCHATLTYRMLEPTRVVNWEVIIMDEAHFLDPASIAARGWAAHRARANESATILMTATPPGTSDEFPHSNGEIEDVQTDIPSEPWNTGHDWILADKRPTAWFLPSIRAANVMAASLRKAGKSVVVLNRKTFEREYPTIKQKKPDFILATDIAEMGANLCVERVLDCRTAFKPVLVDEGRKVAIKGPLRISASSAAQRRGRIGRNPNRDGDSYYYSEPTSENNAHHVCWLEASMLLDNMEVRGGMVAPLYGVEGTKTPVSPGEMRLRDDQRKVFRELVRNCDLPVWLSWQVAKAGLKTNDRKWCFEGPEEHEILNDSGETVKCRAPGGAKKPLRPRWCDERVSSDQSALSEFIKFAEGRR | soluble
2 | MPPLTHQSLKCVIKHLEANARIQLSQRCPSLHKTEKLIPLTIYNLELDQCSVKINNTDYSLTLTSNNFSSPFDLDQFGAIDLDEVDVDGNDVLVDNRSFKEEKNRLLRMRIEIRKMPDGVEKQEATAAVVALEQLEDNRWLRREPTSSSMMNLSINSQFIIFRGEKLCYNMKLHQAFRYLVAKLFSGRRCPIQVKKLSVECKGILRVPADLRFKVSHLEILGSGVDKIVEAFKPLIGRIQTITVNDDFNISHPIFQTALILKNPNENLFGAASASNVRVENNEQFSSLSERVVDLIRIWQSHGHKIGTIWNFSMRSQEQALDSIMYLRRQLGASFSGHKNLSQYGRSAAISLNNSDEIYVSFKQQQIKVWNLKVVVRRKRL | not soluble
3 | MKKILLSAAVLLLSLGTYAQNNPTSLPTDIRIKKVVYRENDVIPVHGIPFTTTQIQFAKQERVLDIEGGDTTAWMVTYHPQLENMIFIKPTMFDSKTNMTVITNQRAYYFSLTSAKKLEQEPGKKTYALKFEYPQPQPVNTKNTTPNKTVHPKVVNTAYRFSGSPQLVPRHVFDDGKFTYFELSAQGSVPAIFAVDDQSGKESTVNTRREGKFIVVQRLAPQFTLRQGGLTASVFNTPEINRIRANRRPK | not soluble
4 | MGSDKIHHHHHHMMVNESADQLYSFALLDEDAKREIRRSLLKAVALPGHLIPFASRDLPIARGWGTGGLQITLSIITPDDTLKVIDQGDDESVNAVNLRRLIHRTTGVATTTDTAAASLIQTRHRIPEEPLRADQILVLQVPMADPLRWVEPSLERAITMHGETDYGKMWVYLYESVVRAGDLRIASQYPVIVNHRYMMDTTPIPRWDVPKLHMAETLYLFGAGREKRIYAVPPHTPVEPLQFEDYPFRTEYRPGQRCARCGAENTFLTSHFVADANGGRWEMTCSDVAFCAKRQGEQRDR | not soluble
5 | MSLEFAMWAYPWDLLDEGPSEVERRLRDIGIDELNLATNYHTVQAFTPHSPERRTLFARASSYFEPGPEYGDLEPVPYEGMNGDWVADAATGLSDLTLNSWTVGCHNSRLGMANPEYTLESAHGDDLVFGLCPSQPAVQTYLSALVSDLSSRDEFARIELETFDYFYGTGFGWHHQKIHARLGVLGEFLLGLCFCPHCRKNAKAAGVDAERVRSTVADTIDDIVAGDVSHEHPPEEWLADHSTVAAYVDVRERTLASLYATLADAAGTTSLGYYVGAPEPGREWVVGADLQALSNHVDYYCLPAYESSSDAVIGAYNAVETVIDDVPLHIGLLPGHPAIDDEATVVDIVETLDSKGVPRLSFYNYGLLPEQSLEWVETAIETVSEGHHHHHH | soluble
6 | MGSDKIHHHHHHMKYLVSIDGGGTKTKFCVSDLDGNILKEHTTGSTNYKSVGIKKTYENINNGFKKILKDLYIDYDDIEYTVFGISGCDSPNDYKIIMDEILKIGINKEKIYLANDAVLAFYAQADSPGLVIVAGTGSIILGIKEDGEIYRVGGWGYNFSDLGSGYDIGRKLLKKVLLYCDECHEYSDLFSCVLDFFGANSFEQLAYMITDINDNVEIANLASLVIDCAEQGDKLAIEILRESSTELSKLAQVILRKISNPMKMDKSEINIVLSGGTLNKTVYVQMLMNNLKTENTDKNLKFISQENQPVYGGIRLAMALANRRVKHG | not soluble
7 | SLSGRIVYNFNPGWRFHRGDIKGAEAVRFDDTSWQVVSVPHTVELMPAEASGCRNYQGVAWYRKHFVIPQDMKGKEVSLHFEGAMGKQVIYLNGKRVQEHLGGYLPFTVQLTEQGVQPGDSCLLAVMTDNSDDKNFPPGKRQYTLDFAYHGGIYRDVWMIGKSSVAITDALEADKVAGGGVFVHFDNISGKKAEVYVDTEVHNSGKQTRTVAVETVLADAGDVPVKRVSQQVKLQAGESKTVRQRFAVRNPKLWSPDSPYLYRIQSRVKAGHEVLDGGVTRVGIRKAEFKGKDGFWLNGKPFGQLVGANRHQDFAYVGNALPNSQQWRDAKRLRDAGCTIIRVAHYPQDPAFMDACDEMGLFVIVATPGWQYWNKNPEFAKLVHRNTREMIRRDRNHPSVLMWEPILNETPYPRDFALEALRITREEFPYPGRPVAAADVHSKGVAENYDVVYGWPGDDEKADRPEQCIFTREFGENVDDWYAHNNNNRASRSWGERPLLVQALSLSKSYDEMYRTTGQFVGGAQWHPFDHQRGYHPDPYFGGIYDAFRQPKYAYYAFRSQSAATLKHPVAECGPMVFIAHEMSPFSDADVVVFSNCDSVRLSVYDGTESRTLPVVHAQGHMPNAPVIFKDVWDFWEAREYSYKQKNWQKVNMVAEGIIDGKVVCTYKRMPSRRSTKLRMYVDTEGKQLVADGSDFIVVVAEVTDDSGNVRRLAKENIVFTVEGEGRIIGDASINANPRTVEFGSAPVLIRSTRKPGKIKVKAHVQFEGTNAPVATEIELESIPSELPFCYTEEG | not soluble
8 | MAHHHHHHMYLCWNDTFLTSFALDTLLSKLVAEVCEKRPVSSRQVLELMREALETQKMQQWYYSETVRSFNDAVNSLSRRGFPLQMACPLYFRIPQEDGGVHELFRYGSEIAVTPNNYDHFEHMLKRYQAVVNGELSQEGYYDAVRHLLPISAHCNLLNSSYTPIINFLQECLLNPRSQWAIQSSSVWDQLGVTYAVPFAGRLFAVDPTKPVTALVSFEDANRYVEMASERCRTLSSLLTTGASLNVVRRAAAAAASPPSASSGRAAVKLAPSTIPVASSAATSEEARKWEAFEAIGLRPEVFSDMSPAEIEFWKYILRLRESPSQIHDISFHLEFGPHHMDLKENGRFIPVTRLNLNQFIEAVVAKQDEVHRYINEVALVTPTHSNASRDAGGGGEGSAGPPPPPVAASNTAAAQAMPAPQQDIKIPAQPPPRTIGSEATSPVGHAQSEAHRDNEAHLTLRDVDSTVVRSIMELRSQYQLGRLTKTELNARQLRFCLPCRDGVYNLIPNGRHIQVATGNIGIFLQYVEEEKKRVEALSGGKSEDSAARACSHAPEATTGGTGSLNVIQRDRERVYGAVEAADADAGYWTDKNVLDIWTYECTTACLLKSSMSPEEIVRQTQLQWDTNFLSRKDCPYANASEDGCVILPKDVKTYLRLLRRRLQSIRLAILDAGKCPQEPSEWDVGEWDVVNPSTPPLEFEVPASVHAIPSAPENLTMFSPTHNTGGLLAPSQSLYL | not soluble
9 | MSLRVLFLRPDNEDNELNEKLMILRKNGIEVLNIPIFKIKCVSYSLPTYDYEALAFTSRNSVICFKDRTLIKNVHKIYAIGEETAELLMKMYNVNPITPERFTSIELAKRILEDKVNSILSIRSRKASEDMRNILNGKIKYDEIYVYDSEIIRDNINEISKILTECEVDAIAFTSSLMAKLIGPFIRGKCNIIIFSIGPMTTETLKRVNNKVKIIESKTHSIKGIIETILVEMKRNGRDEGHHHHHH | soluble
10 | QMTARDVYLPVAAQPSVDTLVGMSQQAEDRGYDRVWLPETWGRDAVTTLTSIAEHTSTVGLGSSILNVYSRSPALLGQTAATLQEVSDGRFRAGVGPSGPIVIEGWHGREFESPLKYTRETVDIMKQVLSGETVDYDGDIFSLSGFRLRCEPPEPAPPVDAGGLGPKSVELAGRFADGWHALMLTADGLRDRLEDFEHGADLGDRDRADQRVTLSLTCCAMDDREQARELARQHVAFYIGGMGTFYRDALARQGYEDTAYEIAEQWGSGNKGAAVDAISDELLDSIAVAGTPEDCRDRIAQFEDIDGVDAINISFPRAAERDTIDTTIDVL | not soluble
11 | MSVARHTQILPSVLDRLLDDEPDQSHIESISLFELPQFKRALARDLEALLNTRLMPLDELMESFPQARDSLLTFGIPDLSGISLLNPDDRELLREQLRRSIELHEPRLSRVRVNLDAPREMERHLRFRVDAVLKVHPHRPPVTFDATLQLSSNVYKVQG | not soluble
12 | MAHHHHHHMKPYVWPTSDEAPPPSGRRTFPRQFQVNHGTLNLFSPAVPESQQCNTRAAAGSFSITGQRGILHQRNHNKESTATREFPVNGLRRVSAPQRSETPHGIRHIRDAAGAQQHVQVVNITDAYKDPMQMGPRRTGVKCLPQKSESDDVSVALSFAGSRQQLSARVLAAPVGKPSRPSLYPIDYSDQERFAQAVRDHAQKRTRGLAEFYVQLVRDTVGSVTSSTPKPAIVPWSLDQEPTRRVLTLGRCRDQLVALTAMPISLSDLALLLWGAGNGEVANSDSLTSDCDKDASLPLNCRPVPFCDFAAAFGQNSSDVRLARMKV | not soluble
13 | MGSDKIHHHHHHMVTEIELKYSLLDSNEQTKPEKIKTTISQLLSEHDVTFVHQEKQLSNHYFDTADLTLRKNRIALRTRGTKCFDETKRFEQTIKTSGTIIAGLHQRPEYNVDIGDAKPIVSLFPDIIFQPNIDINLLQQQIVELFSTHFTRHTWLVSFEDAQIEIAFDCGEVACQNYVKKPRIYEIELEFVSGDSQALLGLTKLLFSQLALRPGQLTKAARGYALYHESLTLASHVENKPPNNSAIVEQIELSMINLPKKIPLHNALTHGIEFSLNQLQLCVDSYVEVPSFNMLSKVSEQLILLRQGFWLFDELLSPDEKALRTELSYFIRTIHWVENARYIQLLINKQSSYQKENLINQELITKLQLRQSRYPRELQVLELLHSERFNNLQVDLLSLLLKRNSDETLKIDNSSSLVEFATKHLTNSTKALSDELVKLQKPQDSTSIELYLTAHSLLIRALLTTSWFSCLFAEPESDIVKRFNMPLLDIKQGIIELQSLSLLLQQLKHLPKKENKLTQWLTNKSENLITALDQSRAKALTMKPYWP | not soluble
14 | MAHHHHHHMRPSSHRRPKSSAASDVGRRIRYSDAPPWDRSIRVNGDRALSAGRASRRGPEMMKAKLQGTPARPSHCNLVTTQAATLVATVPPVNEPQVELMSQLQDVVVRLSQSAVGEKQRLAHMQQRLDAYAALMREQDRMIDELRGMNIRLQKERDALILFRQQSLNHDLHLMNNLENDGGIDEEARRAYAKYEGQNNSYGTPCNGSLGAMTPRSRGFVRSLVAQLRDERRKRLEVEEQSSRMIGEQQLTIQRLEDRLRPQVVAPRSVLVARLESPHVSSHQRASNEEKDAVNTPLQCPCVDSVSAPMSSPNFSVVNQEKRLTEVNPMAPAVPPIPLPERNKEAVITEQVHQSPAVSMDQQITPPLEVPLKIHSTSYDDAAAILFDIRKRHGL | not soluble
15 | MRVEDVMVTDVDTIDITASLEDVLRNYVENAKGSSVVVKEGVRVGIVTTWDVLEAIAEGDDLAEVKVWEVMERDLVTISPRATIKEAAEKMVKNVVWRLLVEEDDEIIGVISATDILRAKMAKRY | soluble
16 | MMATQTLSIDSYQDGQQMQVVTELKTEQDPNCSDPDAEGVSPPPIESQTPMDADKQAIYRHPLFPLLALLFEKCEQSTQGSEGTTSASFDVDIENFVRKQEKDGKPFFCEDPETDNLMVKAIQVLRIHLLELEKVNELCKDFCSRYIACLKTKMNSETLLSGEPGSPYSPVQSQQIQSAITGTLSPQGIVVPASALQQGNVTMATVAGGTVYQPVTVVTPQGQVVTQALSPGTIRIQNSQLQLQLNQDLSILHQEDGSSKNKRGVLPKHATNVMRSWLFQHIGHPYPTEDEKKQIAAQTNLTLLQVNNWFINARRRILQPMLDSSCSETPKTKKKPAQNRPVQRFWPDSLASGVAQATPSELAMSEGAVVTITTPVNMNVDSLQSLSSDGATLAVQQVMMAGQSEDESVDSTEDEGGALAPTHISGLVLENSDSLQ | not soluble
